Results reported in paper PMC10705477 (bioRxiv, 2023).
Positions count from the first letter of the chain named. Numbers in names are those of the source.

B1: γ protein of the E. coli clamp loader, truncated form (residues 1–373) (domain or fragment)
chain: MSYQVLARKWRPQTFADVVGQEHVLTALANGLSLGRIHHAYLFSGTRGVGKTSIARLLAKGLNCETGITATPCGVCDNCREIEQGRFVDLIEIDAASRTKVEDTRDLLDNVQYAPARGRFKVYLIDEVHMLSRHSFNALLKTLEEPPEHVKFLLATTDPQKLPVTILSRCLQFHLKALDVEQIRHQLEHILNEEHIAHEPRALQLLARAAEGSLRDALSLTDQAIASGDGQVSTQAVSAMLGTLDDDQALSLVEAMVEANGERVMALINEAAARGIEWEALLVEMLGLLHRIAMVQLSPAALGNDMAAIELRMRELARTIPPTDIQLYYQTLLIGRKELPYAPDRRMGVEMTLLRALAFHPRMPLPEPEVPRQ
B2: γ-K141A (domain or fragment)
chain: B1 chain with K141A

What was measured:
cryo-EM structure = molecular target: the molecule itself; assay: cryo-EM structure
[1] = molecular target: the molecule itself; assay: co-purification on an anion-exchange column

Protein | binding result (cryo-EM structure) | binding result [1]
B1 | binds | 
B2 |  | binds
